Data as given in US20260008856A1, “METHODS OF TREATING DISEASE USING ANTI-IL1RAP ANTIBODIES AND ANTIBODY DRUG CONJUGATES” (Bluefin Biomedicine, Inc., priority 2022, published 2026).

Columns and labels:
EOL-1 = test: Flow cytometry binding to endogenous cell line EOL-1; assay type: cell-based, human; set-up: key to binding to EOL-1 by flow cytometry: (−): No binding; (+): Weak binding; (++): Moderate binding; (+++): Strong binding; details: primary antibody 1 ug/ml
Method in brief: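 Live cells stained on ice for 30 minutes with primary antibody at 1 ug/ml in cold PBS/0.5% BSA, then washed and detected with Alexa Fluor 488 anti-human IgG (1:1000). Binding read by flow cytometry on endogenous IL1RAP-positive lines.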

[1] = test system: TARC production in HDM stimulated human PBMCs; test: TARC production in HDM stimulated human PBMCs; assay type: cell-based; details: antibodies 30 ug/ml, HDM 10 ug/ml
Excerpt: Materials included Human peripheral blood mononuclear cells (PBMCs) that were isolated from healthy donor blood and either frozen in liquid nitrogen and thawed prior to analysis or used fresh. Materials also included HDM (house dust mite extract) that was from Greer lab and purchased through Fisher Scientific (NC9756554, Lot #390844). Additionally, Human IL-4 (204-IL-010) was purchased from R&D Systems; Human IL-13 (200-13) was purchased from Peprotech; JAK inhibitors (JAKi) Abrocitinib (HY-107429) and Upadacitinib (HY-19569) were purchased from MedChemExpress; Dexamethasone (D4902) was purchased from Sigma-Aldrich; Dupilumab (HY-P9926) was purchased from MedChemExpress; Tralokinumab was produced by Bluefin Biomedicine according to the published protein sequence; and TARC ELISA kits (DuoSet Cat #DY364, Quantikine Cat #SDN00) were purchased from R&D Systems.
Blood was drawn in heparin tubes from healthy volunteers. PBMCs were isolated by centrifugation of the blood over Ficoll-Paque Plus density gradients using LeucoSep tubes.
0.2 million PBMCs in 100 ul medium (RPMI1640, 10% heat-inactivated FBS) were added to each well of 96 well cell culture plate. BFB759 at multiple concentrations in 50 ul medium was added to the wells. The cells were incubated in the incubator for 45 min. Then, 50 ul HDM solution (final concentration 10 ug/ml) was added to the wells. […]

[2] = test system: TARC expression in PBMCs stimulated with HDM and IL-4; test: TARC in PBMCs treated by HDM and hIL-4; assay type: cell-based, human
Protocol: 0.2 million PBMCs in 100 ul medium (RPMI1640, 10% heat-inactivated FBS) were added to each well of 96 well cell culture plate. BFB759 at multiple concentrations in 50 ul medium was added to the wells. The cells were incubated in the incubator for 45 min. Then, 50 ul HDM solution (final concentration 10 ug/ml) was added to the wells. After 7 days incubation, the supernatant was transferred to a new 96 well plate, and used in TARC ELISA right away, or frozen in −80 C freezer for ELISA later. For the combination studies of BFB759 with other drugs, the single agent or combination of drugs were added to the PBMCs, incubated for 45 min, then HDM solution, or HDM and IL-4 or IL-13 solution were added to the wells. The assay was incubated for 7 days, and the supernatant was harvested for TARC ELISA.
Dupilumab is approved for treatment of AD (Atopic Dermatitis). It inhibits IL-4/13 signaling by blocking their binding to IL-4Ra. […] (FIG. 15)
In the data shown in FIG. 15, HDM was used at 10 ug/ml, IL-4 was used at […], antibodies were at three different concentrations as shown in the graph. Data shown are mean±s.d.

[3] = test system: IL-6 secretion in human whole blood cultures stimulated with HKCA; test: IL-6 production in human whole blood cultures stimulated with heat-killed Candida albicans; assay type: cell-based; details: 24 hours, 1 μg/ml alone, combination 1 μg/ml BFB759 + 0.5 μg/ml adalimumab
Excerpt: Materials included Human peripheral blood drawn from 5 healthy donors. Materials also included Anti-human TNF alpha (Adalimumab Biosimilar), BioXCell cat #SIM0001, lot #8024221F1; Heat-killed Candida albicans (HKCA), InvivoGen cat #tlrl-hkca, lot #6292-44-02; RPMI 1640 with L-glutamine and HEPES, Corning cat #10-041-CM; and Human IL-6 DuoSet ELISA, R and D Systems cat #DY206-05. Blood was drawn into heparin tubes from healthy volunteers. Whole blood cultures comprised of whole blood diluted with plain RPMI 1640 medium were set up in sterile 5.0 ml polypropylene snap cap culture tubes. One of the following treatments were added for 1 hour prior to either being left unstimulated or receiving stimulation with 1.5×10^6 cells heat-killed Candida albicans: medium alone (cells alone), 1 μg/ml IgG1 isotype control antibody alone, 1 μg/ml BFB759 alone, 1 μg/ml adalimumab alone, or one of two combination treatments of 1 μg/ml IgG1 isotype control antibody+0.5 μg/ml adalimumab or 1 μg/ml BFB759+0.5 μg/ml adalimumab. The final volume of each culture was 1.0 ml. Cultures were incubated for 24 hours at 37° C./5% CO2. Supernatants harvested from each culture in duplicate were frozen at −80° C. until assayed in duplicate for IL-6 levels by ELISA.

[4] = test system: normal human dermal fibroblasts (NHDF); test: IL-6 and IL-8 production in NHDF stimulated with cytokine combo incl. TNF-α; assay type: cell-based; details: cytokine combo IL-1α/β, IL-36α/β/γ, antibodies 0-20 ug/ml, BFB759 0.5 ug/ml in combination
Protocol: Human NHDF cells were plated on 96-well, flat-bottom plates at 4,000 cells/well. […] For combination therapy, 0.5 ug/ml BFB759 was mixed with adalimumab or isotype control antibody at increasing concentrations (0-20 ug/ml, 5-fold dilution) and incubated with cells in duplicate for 45 minutes, prior to the addition of cytokine combo. The plates were then incubated overnight at 37° C., 5% CO2. 24 hours after treatment, supernatants were transferred and assayed for IL-6 and IL-8, as per manufacture's protocol (R&D Systems; Human IL-6 DuoSet ELISA, Human IL-8/CXCL8 DuoSet ELISA). The raw assay data were analyzed using GraphPad Prism 9 software to perform a non-linear regression.

B1: 37E10_15B5: human anti-IL1RAP antibody BFB759 (i.e., 37E10_15B5), VH SEQ ID NO: 64, VL SEQ ID NO: 68 (antibody, V domains shown)
VH: QVQLVESGGGVVQPGRSLRLSCAASGFTFRSHGMHWVRQAPGKGLEWVAVIWYDGSSEYYADSVKGRFTISRDNSKNTLYLQMNSLRAEDTAVYYCARENVYGSGWFFDYWGQGTLVTVSS
VL: EIVMTQSPATLSVSPGERASLSCRASQSVGSNLAWYQQRPGQAPRLLIFGASTRATGIPARFSGSRSGTEFTLTISSLQSEDFALYYCQQYNNWPPWTFGQGTKLEIK
- binding to EOL-1 by flow cytometry (EOL-1): (+++)
- inhibition of HDM induced TARC level, FIG. 13 [1]: inhibits
- inhibition of TARC expression in the HDM and IL-4 model ([2]; 1 or 0.1 ug/ml of BFB759, alone or combined with dupilumab): minimal inhibition
- inhibition of TARC expression in the HDM and IL-4 model ([2]; HDM 10 ug/ml, IL-4 750 ug/ml, three antibody concentrations): partially inhibits
- inhibition of IL-6 secretion [3]: inhibit IL-6 secretion
- IL-6 production [4]: dose-dependent decrease
- IL-8 production [4]: dose-dependent decrease
